Literature values in PMC7876049.

Biological target: CYK4 (Homo sapiens) (UniProt Q9H0H5)
Chain of UniProt Q9H0H5 (Q9H0H5 whole entry): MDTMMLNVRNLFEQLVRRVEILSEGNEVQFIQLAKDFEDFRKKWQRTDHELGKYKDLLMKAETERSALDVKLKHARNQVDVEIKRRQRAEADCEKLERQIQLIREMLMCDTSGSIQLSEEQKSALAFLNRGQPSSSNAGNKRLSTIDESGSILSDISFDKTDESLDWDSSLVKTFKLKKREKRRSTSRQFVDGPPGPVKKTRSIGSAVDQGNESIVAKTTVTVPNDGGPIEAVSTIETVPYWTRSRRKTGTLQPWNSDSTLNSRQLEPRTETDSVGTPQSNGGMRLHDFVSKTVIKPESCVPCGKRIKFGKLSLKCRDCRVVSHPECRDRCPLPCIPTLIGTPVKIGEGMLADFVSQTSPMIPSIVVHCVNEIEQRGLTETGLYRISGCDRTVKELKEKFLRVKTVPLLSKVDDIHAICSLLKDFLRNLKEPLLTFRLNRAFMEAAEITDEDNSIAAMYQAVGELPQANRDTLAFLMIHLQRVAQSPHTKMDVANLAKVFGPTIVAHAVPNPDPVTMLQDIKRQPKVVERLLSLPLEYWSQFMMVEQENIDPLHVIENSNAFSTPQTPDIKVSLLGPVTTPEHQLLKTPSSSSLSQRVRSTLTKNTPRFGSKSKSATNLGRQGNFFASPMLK

- Kd: 7 nM
Substance: MKLP1 (from UniProt Q02241)
